Drawing on paper PMC6009930, “Allosteric inhibition of carnosinase (CN1) by inducing a conformational shift” (Journal of Enzyme Inhibition and Medicinal Chemistry, 2017), this text covers Km and Vmax for 1 protein.

Substrate in this series: NCCC(=O)N[C@@H](Cc1cnc[nH]1)C(=O)O
As to the kind of experiment: OPA fluorescence assay of liberated histidine, Michaelis-Menten fit. The series is classed as biochemical, Homo sapiens. Particulars: pH 7, control without thiol. From the text:
OPA fluorescence assay of liberated histidine, Michaelis-Menten fit on recombinant CN1 (rCN1)

B1: recombinant CN1 (rCN1) (Homo sapiens) (protein)
chain: SSPSPPPALLEKVFQYIDLHQDEFVQTLKEWVAIESDSVQPVPRFRQELFRMMAVAADTLQRLGARVASVDMGPQQLPDGQSLPIPPVILAELGSDPTKGTVCFYGHLDVQPADRGDGWLTDPYVLTEVDGKLYGRGATDNKGPVLAWINAVSAFRALEQDLPVNIKFIIEGMEEAGSVALEELVEKEKDRFFSGVDYIVISDNLWISQRKPAITYGTRGNSYFMVEVKCRDQDFHSGTFGGILHEPMADLVALLGSLVDSSGHILVPGIYDEVVPLTEEEINTYKAIHLDLEEYRNSSRVEKFLFDTKEEILMHLWRYPSLSIHGIEGAFDEPGTKTVIPGRVIGKFSIRLVPHMNVSAVEKQVTRHLEDVFSKRNSSNKMVVSMTLGLHPWIANIDDTQYLAAKRAIRTVFGTEPDMIRDGSTIPIAKMFQEIVHKSVVLIPLGAVDDGEHSQNEKINRWNYIEGTKLFAAFFLEMAQLH
notes: FLAG-tagged, secreted by transfected CHO cells, purified from supernatant; homodimer in vitro; dinuclear Zn site
By Km is commonly meant the concentration of substrate that gives half-maximal velocity. As a reminder, the Vmax is the rate approached at saturating substrate. B1: the Km was found to be 800 ± 100 µM and the Vmax is 0.07 µmol/min/mg.
